# In patent US20220411487A1 (Regeneron, published 2022):
# Changes are numbered by the printed parent chain. In names and notes the source's numbering stands.
# T1: mfTMPRSS6_S751A-MMH (Macaca fascicularis, UniProt Q8IU80 77-811 (human entry))
# T1 construct: also called REGN5977; Macaca fascicularis TMPRSS6 extracellular domain with a S751A mutation and a C-terminal myc-myc-hexahistidine tag
# T1 chain: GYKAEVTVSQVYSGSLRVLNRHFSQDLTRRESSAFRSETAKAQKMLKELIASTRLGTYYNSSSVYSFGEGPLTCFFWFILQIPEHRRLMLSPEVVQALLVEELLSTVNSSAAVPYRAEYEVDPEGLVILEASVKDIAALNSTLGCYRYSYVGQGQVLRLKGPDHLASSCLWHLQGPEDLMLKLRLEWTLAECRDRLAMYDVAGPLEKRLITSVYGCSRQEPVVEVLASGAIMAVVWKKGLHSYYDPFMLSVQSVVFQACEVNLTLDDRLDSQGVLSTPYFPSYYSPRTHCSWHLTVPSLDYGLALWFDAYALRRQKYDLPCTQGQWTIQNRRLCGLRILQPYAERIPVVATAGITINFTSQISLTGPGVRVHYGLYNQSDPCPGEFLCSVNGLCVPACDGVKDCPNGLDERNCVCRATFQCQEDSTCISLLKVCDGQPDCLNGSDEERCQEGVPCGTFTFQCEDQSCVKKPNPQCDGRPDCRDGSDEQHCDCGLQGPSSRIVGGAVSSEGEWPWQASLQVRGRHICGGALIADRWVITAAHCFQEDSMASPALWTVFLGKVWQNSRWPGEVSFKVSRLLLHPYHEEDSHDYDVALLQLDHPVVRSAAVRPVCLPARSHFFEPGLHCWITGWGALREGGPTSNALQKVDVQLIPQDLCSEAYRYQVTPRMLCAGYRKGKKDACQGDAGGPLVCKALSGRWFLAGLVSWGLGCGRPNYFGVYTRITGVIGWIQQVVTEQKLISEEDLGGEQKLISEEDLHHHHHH
# T2: extracellular domain of cynomolgous monkey TMPRSS6 (V673M) with N-terminal 8xHistidine, CHO conditioned media (cynomolgous monkey, UniProt Q8IU80 77-811 (human entry))
# T2 chain: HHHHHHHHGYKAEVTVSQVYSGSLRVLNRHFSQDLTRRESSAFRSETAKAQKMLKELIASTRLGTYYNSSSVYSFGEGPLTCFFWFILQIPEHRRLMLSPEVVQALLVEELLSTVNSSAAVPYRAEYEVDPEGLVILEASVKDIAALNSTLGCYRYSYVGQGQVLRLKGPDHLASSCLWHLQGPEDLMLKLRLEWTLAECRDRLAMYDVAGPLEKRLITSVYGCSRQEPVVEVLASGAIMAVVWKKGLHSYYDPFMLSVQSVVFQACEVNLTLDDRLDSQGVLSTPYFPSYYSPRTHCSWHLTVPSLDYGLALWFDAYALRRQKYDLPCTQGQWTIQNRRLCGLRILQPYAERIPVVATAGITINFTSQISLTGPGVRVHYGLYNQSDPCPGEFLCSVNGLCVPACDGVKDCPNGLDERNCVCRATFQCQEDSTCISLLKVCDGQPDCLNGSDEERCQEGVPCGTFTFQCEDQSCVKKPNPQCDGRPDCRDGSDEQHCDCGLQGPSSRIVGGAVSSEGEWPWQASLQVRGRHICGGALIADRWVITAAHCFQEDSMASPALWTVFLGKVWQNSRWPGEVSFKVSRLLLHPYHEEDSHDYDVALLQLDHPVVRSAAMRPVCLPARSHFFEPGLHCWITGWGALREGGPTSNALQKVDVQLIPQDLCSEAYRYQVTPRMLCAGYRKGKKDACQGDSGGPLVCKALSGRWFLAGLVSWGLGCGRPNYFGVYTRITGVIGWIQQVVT
# B1: REGN8023 (antibody, human IgG4 S228P, kappa, V domains shown)
# VH: EVQLVESGGGLVKPGGSLRISCAASGFIFVDYAMHWVRQAPGKGLEWVSGISWNSGSIGYADSVKGRFTISRDNAKKSLYLQMSGLRPEDTALYYCVKSGFYYVRSYFDNWGQGTLVTVSS
# VL: DIVMTQSPLSLPVTPGEPASISCRSSQSLLDSDDGNTYLDWYLRKPGQSPQLLIYTLSYRASGVPDRFSGSGSGTDFTLKISRVEADDVGVYYCMQRIEFPLTFGGGTKVEIKR
# notes: fully human; human IgG4 Fc with hinge S108P; also called mAb37699
# B2: REGN7974 (antibody, human IgG4 S228P, kappa, V domains shown)
# VH: EVQLVESGGGLVQPGRSLRLSCIASGFNFGDYGMSWVRQAPGKGLEWVGFIRSKAYGGTTEYAASVKGRFTISRDDSKSIAYLQMNSLKTEDAAMYYCSRDYYDILTGYYGDYWGQGTLVTVSS
# VL: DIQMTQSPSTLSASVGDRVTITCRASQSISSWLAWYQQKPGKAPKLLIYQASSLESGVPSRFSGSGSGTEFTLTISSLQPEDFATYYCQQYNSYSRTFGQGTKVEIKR
# notes: fully human; human IgG4 Fc with hinge S108P; also called mAb41422
# B3: REGN7977 (antibody, V domains shown)
# VH: EVQLVESGGGLVKPGGSLRVSCAASGVTFSNVWMSWVRQVPGKGLEWVGRIKSKTDGGTTDYAAPVKGRFTISKDDSKNTLFLQMNSLKTEDTAVYYCTTETGDFWSGYYPRFQHWGQGTLVTVSS
# VL: DIQMTQSPSSLSASVGDRVTITCRASQYISTYLNWYQQKPGKAPSLLIYAASSLQSGVPSRFSGSGSGTDFTLTISSLQPEDFASYSCQQSYSTPPYTFGQGTKLEIKR
# notes: fully human; human IgG4 Fc with hinge S108P; also called mAb41465
# B4: REGN7999 (antibody, human IgG4 S228P, kappa, V domains shown)
# VH: EVQLVESGGGLVQPGGSLRLSCAASGFTFSSYAMTWVRQAPGKGLEWVSAISGSDTSTYYADSVKGRFTISRDNSKNTLFLQMNSLRAEDTAVYYCAKHQDYDFSYYYSAMDVWGQGTTVTVSS
# VL: DIQMTQSPSSLSASVGDRVIITCRASQDFNSWLAWYQQKPGKAPKLLIYAASSLQSGVPSRFSGSGSGTDFTLTISSLQPEDFATYYCQQTDSFPFTFGPGTKVDIKR
# notes: fully human; human IgG4 Fc with hinge S108P; also called mAb41450
# B5: REGN7969 (antibody, human IgG4 S228P, kappa, V domains shown)
# VH: QVQLVESGGGVVQPGRSLRLSCAASGFTFNNYGMHWVRQAPGKGLEWVAIISYDGSNEYYSDSVKGRFTISRDNSKNTLYLQMNSLRAEDTAVYYCARDQDYGGNLFHYWGQGTLVTVSS
# VL: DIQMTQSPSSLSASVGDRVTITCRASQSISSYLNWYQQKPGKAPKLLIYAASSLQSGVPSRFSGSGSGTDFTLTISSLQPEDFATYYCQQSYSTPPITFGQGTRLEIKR
# notes: fully human; human IgG4 Fc with hinge S108P; also called mAb37746
# B6: REGN7971 (antibody, human IgG4 S228P, kappa, V domains shown)
# VH: B5 VH with N30S, N31T, E58D, S61L, S85N, R98K, D101G, H108A, Y109S
# VL: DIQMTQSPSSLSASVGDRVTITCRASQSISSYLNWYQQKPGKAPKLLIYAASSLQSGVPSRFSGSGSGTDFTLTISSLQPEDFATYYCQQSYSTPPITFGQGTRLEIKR
# notes: fully human; human IgG4 Fc with hinge S108P; also called mAb37763
# Molecular target: T1, mfTMPRSS6_S751A-MMH
# Assay: SPR, mAb captured via anti-hFc, 37 C
# Procedure: (§1) The equilibrium dissociation constant (KD) for TMPRSS6 binding to different TMPRSS6 monoclonal antibodies (mAbs) was determined using a real-time surface plasmon resonance biosensor using a Biacore 4000 instrument. All binding studies were performed in 10 mM HEPES, 150 mM NaCl, 3 mM EDTA, and 0.05% v/v Surfactant Tween-20, pH 7.4 (HBS-ET) running buffer at 25° C. and 37° C. The Biacore CM5 sensor chip surface was first derivatized by amine coupling with a human Fc specific mouse mAb to capture different TMPRSS6 mAbs. […] Different concentrations (100 nM to 3.7 nM, 3-fold serial dilution) of the TMPRSS6 reagent proteins prepared in HBS-EP running buffer were injected over the TMPRSS6 mAb captured surface for 150 seconds at a flow rate of 30 μL/min and their dissociation in HBS-ET running buffer was monitored for 10 minutes. At the end of each cycle, the TMPRSS6 mAb captured surface was regenerated using a 12 second injection of 20 mM phosphoric acid.
# (§2) The association rate (kₐ) and dissociation rate (kd) were determined by fitting the real-time binding sensorgrams to a 1:1 binding model with mass transport limitation using Scrubber 2.0 (BioLogic Software) curve-fitting software. Binding dissociation equilibrium constant (KD) and dissociative half-life (t½) were calculated from the kinetic rates as: […]
100 nM Ag Bound,Kd,koff,kon,t½,Binder
206 RU,1 nM,0.000634 s⁻¹,632000 M⁻¹ s⁻¹,18 min,B1
183 RU,16.1 nM,0.00405 s⁻¹,251000 M⁻¹ s⁻¹,2.9 min,B2
133 RU,11.9 nM,0.00247 s⁻¹,207000 M⁻¹ s⁻¹,4.7 min,B3
143 RU,0.75 nM,0.000306 s⁻¹,408000 M⁻¹ s⁻¹,38 min,B4
105 RU,3.27 nM,0.000924 s⁻¹,283000 M⁻¹ s⁻¹,12 min,B5
160 RU,1.68 nM,0.00061 s⁻¹,363000 M⁻¹ s⁻¹,19 min,B6

# Molecular target: T3, hTMPRSS6_S762A-MMH (human, UniProt Q8IU80 77-811)
# T3 construct: also called REGN5330; human TMPRSS6_S762A-MMH
# Assay: SPR, mAb captured via anti-hFc, 37 C
# Procedure: as §1, §2
100 nM Ag Bound,Kd,koff,kon,t½,Binder
205 RU,2.24 nM,0.000935 s⁻¹,418000 M⁻¹ s⁻¹,12 min,B1
206 RU,21.2 nM,0.00235 s⁻¹,111000 M⁻¹ s⁻¹,4.9 min,B2
134 RU,11 nM,0.00124 s⁻¹,113000 M⁻¹ s⁻¹,9 min,B3
129 RU,2.3 nM,0.000354 s⁻¹,154000 M⁻¹ s⁻¹,33 min,B4
110 RU,4.4 nM,0.000975 s⁻¹,222000 M⁻¹ s⁻¹,12 min,B5
169 RU,2.44 nM,0.000637 s⁻¹,261000 M⁻¹ s⁻¹,18 min,B6

# Molecular target: extracellular domain of Human TMPRSS6 with N-terminal 8xHistidine, CHO conditioned media (human, UniProt Q8IU80 68-802, limits assumed)
# Sequence (Q8IU80 other isoform, or with tags, fused parts or gaps limits assumed): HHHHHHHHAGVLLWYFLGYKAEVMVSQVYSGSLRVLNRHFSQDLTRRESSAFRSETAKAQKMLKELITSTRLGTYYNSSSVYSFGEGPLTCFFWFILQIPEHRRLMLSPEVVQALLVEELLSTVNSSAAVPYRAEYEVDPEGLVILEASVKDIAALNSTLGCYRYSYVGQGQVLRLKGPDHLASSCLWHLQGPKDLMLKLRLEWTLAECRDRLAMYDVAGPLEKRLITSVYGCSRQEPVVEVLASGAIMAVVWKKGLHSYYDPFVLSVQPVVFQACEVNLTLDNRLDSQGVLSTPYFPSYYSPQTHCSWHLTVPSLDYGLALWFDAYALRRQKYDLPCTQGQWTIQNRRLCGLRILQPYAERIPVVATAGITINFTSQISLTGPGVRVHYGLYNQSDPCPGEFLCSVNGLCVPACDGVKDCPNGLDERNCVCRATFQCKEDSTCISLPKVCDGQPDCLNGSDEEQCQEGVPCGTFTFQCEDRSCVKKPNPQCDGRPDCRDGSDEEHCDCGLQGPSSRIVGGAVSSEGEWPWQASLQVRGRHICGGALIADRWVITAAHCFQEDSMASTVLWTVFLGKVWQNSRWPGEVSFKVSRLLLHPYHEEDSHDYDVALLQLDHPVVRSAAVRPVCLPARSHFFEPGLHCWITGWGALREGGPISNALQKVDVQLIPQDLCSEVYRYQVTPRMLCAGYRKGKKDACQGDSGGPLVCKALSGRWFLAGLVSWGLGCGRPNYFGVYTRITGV
# Assay: cell-based or functional assay
"% inhibition of enzymatic activity, CM bioassay","IC50, CM bioassay",Binder
98%,0.71 nM,B1
85%,400 nM,B2
94%,23 nM,B3
98%,3 nM,B4
71%,> 10 nM,B5
65%,> 10 nM,B6

# Molecular target: T2, extracellular domain of cynomolgous …
# Assay: cell-based or functional assay
"% inhibition of enzymatic activity, CM bioassay","IC50, CM bioassay",Binder
98%,0.74 nM,B1
69%,> 50 nM,B2
89%,50 nM,B3
98%,1.7 nM,B4
66%,> 50 nM,B5
68%,> 50 nM,B6
